The assay addresses EYFP-RyR1 (full-length rabbit type 1 ryanodine receptor), expressed in RyR1/RyR3 double-null (R1R3) myotubes (rabbit) (UniProt P11716). Put plainly: FRET or BRET. On the technique in general: In BRET a luciferase serves as donor, and the signal depends on an acceptor being close.

EYFP-RyR1 (full-length rabbit type 1 ryanodine receptor), expressed in RyR1/RyR3 double-null (R1R3) myotubes, P11716 1-5037 (natural protein), sequence (P11716 whole entry): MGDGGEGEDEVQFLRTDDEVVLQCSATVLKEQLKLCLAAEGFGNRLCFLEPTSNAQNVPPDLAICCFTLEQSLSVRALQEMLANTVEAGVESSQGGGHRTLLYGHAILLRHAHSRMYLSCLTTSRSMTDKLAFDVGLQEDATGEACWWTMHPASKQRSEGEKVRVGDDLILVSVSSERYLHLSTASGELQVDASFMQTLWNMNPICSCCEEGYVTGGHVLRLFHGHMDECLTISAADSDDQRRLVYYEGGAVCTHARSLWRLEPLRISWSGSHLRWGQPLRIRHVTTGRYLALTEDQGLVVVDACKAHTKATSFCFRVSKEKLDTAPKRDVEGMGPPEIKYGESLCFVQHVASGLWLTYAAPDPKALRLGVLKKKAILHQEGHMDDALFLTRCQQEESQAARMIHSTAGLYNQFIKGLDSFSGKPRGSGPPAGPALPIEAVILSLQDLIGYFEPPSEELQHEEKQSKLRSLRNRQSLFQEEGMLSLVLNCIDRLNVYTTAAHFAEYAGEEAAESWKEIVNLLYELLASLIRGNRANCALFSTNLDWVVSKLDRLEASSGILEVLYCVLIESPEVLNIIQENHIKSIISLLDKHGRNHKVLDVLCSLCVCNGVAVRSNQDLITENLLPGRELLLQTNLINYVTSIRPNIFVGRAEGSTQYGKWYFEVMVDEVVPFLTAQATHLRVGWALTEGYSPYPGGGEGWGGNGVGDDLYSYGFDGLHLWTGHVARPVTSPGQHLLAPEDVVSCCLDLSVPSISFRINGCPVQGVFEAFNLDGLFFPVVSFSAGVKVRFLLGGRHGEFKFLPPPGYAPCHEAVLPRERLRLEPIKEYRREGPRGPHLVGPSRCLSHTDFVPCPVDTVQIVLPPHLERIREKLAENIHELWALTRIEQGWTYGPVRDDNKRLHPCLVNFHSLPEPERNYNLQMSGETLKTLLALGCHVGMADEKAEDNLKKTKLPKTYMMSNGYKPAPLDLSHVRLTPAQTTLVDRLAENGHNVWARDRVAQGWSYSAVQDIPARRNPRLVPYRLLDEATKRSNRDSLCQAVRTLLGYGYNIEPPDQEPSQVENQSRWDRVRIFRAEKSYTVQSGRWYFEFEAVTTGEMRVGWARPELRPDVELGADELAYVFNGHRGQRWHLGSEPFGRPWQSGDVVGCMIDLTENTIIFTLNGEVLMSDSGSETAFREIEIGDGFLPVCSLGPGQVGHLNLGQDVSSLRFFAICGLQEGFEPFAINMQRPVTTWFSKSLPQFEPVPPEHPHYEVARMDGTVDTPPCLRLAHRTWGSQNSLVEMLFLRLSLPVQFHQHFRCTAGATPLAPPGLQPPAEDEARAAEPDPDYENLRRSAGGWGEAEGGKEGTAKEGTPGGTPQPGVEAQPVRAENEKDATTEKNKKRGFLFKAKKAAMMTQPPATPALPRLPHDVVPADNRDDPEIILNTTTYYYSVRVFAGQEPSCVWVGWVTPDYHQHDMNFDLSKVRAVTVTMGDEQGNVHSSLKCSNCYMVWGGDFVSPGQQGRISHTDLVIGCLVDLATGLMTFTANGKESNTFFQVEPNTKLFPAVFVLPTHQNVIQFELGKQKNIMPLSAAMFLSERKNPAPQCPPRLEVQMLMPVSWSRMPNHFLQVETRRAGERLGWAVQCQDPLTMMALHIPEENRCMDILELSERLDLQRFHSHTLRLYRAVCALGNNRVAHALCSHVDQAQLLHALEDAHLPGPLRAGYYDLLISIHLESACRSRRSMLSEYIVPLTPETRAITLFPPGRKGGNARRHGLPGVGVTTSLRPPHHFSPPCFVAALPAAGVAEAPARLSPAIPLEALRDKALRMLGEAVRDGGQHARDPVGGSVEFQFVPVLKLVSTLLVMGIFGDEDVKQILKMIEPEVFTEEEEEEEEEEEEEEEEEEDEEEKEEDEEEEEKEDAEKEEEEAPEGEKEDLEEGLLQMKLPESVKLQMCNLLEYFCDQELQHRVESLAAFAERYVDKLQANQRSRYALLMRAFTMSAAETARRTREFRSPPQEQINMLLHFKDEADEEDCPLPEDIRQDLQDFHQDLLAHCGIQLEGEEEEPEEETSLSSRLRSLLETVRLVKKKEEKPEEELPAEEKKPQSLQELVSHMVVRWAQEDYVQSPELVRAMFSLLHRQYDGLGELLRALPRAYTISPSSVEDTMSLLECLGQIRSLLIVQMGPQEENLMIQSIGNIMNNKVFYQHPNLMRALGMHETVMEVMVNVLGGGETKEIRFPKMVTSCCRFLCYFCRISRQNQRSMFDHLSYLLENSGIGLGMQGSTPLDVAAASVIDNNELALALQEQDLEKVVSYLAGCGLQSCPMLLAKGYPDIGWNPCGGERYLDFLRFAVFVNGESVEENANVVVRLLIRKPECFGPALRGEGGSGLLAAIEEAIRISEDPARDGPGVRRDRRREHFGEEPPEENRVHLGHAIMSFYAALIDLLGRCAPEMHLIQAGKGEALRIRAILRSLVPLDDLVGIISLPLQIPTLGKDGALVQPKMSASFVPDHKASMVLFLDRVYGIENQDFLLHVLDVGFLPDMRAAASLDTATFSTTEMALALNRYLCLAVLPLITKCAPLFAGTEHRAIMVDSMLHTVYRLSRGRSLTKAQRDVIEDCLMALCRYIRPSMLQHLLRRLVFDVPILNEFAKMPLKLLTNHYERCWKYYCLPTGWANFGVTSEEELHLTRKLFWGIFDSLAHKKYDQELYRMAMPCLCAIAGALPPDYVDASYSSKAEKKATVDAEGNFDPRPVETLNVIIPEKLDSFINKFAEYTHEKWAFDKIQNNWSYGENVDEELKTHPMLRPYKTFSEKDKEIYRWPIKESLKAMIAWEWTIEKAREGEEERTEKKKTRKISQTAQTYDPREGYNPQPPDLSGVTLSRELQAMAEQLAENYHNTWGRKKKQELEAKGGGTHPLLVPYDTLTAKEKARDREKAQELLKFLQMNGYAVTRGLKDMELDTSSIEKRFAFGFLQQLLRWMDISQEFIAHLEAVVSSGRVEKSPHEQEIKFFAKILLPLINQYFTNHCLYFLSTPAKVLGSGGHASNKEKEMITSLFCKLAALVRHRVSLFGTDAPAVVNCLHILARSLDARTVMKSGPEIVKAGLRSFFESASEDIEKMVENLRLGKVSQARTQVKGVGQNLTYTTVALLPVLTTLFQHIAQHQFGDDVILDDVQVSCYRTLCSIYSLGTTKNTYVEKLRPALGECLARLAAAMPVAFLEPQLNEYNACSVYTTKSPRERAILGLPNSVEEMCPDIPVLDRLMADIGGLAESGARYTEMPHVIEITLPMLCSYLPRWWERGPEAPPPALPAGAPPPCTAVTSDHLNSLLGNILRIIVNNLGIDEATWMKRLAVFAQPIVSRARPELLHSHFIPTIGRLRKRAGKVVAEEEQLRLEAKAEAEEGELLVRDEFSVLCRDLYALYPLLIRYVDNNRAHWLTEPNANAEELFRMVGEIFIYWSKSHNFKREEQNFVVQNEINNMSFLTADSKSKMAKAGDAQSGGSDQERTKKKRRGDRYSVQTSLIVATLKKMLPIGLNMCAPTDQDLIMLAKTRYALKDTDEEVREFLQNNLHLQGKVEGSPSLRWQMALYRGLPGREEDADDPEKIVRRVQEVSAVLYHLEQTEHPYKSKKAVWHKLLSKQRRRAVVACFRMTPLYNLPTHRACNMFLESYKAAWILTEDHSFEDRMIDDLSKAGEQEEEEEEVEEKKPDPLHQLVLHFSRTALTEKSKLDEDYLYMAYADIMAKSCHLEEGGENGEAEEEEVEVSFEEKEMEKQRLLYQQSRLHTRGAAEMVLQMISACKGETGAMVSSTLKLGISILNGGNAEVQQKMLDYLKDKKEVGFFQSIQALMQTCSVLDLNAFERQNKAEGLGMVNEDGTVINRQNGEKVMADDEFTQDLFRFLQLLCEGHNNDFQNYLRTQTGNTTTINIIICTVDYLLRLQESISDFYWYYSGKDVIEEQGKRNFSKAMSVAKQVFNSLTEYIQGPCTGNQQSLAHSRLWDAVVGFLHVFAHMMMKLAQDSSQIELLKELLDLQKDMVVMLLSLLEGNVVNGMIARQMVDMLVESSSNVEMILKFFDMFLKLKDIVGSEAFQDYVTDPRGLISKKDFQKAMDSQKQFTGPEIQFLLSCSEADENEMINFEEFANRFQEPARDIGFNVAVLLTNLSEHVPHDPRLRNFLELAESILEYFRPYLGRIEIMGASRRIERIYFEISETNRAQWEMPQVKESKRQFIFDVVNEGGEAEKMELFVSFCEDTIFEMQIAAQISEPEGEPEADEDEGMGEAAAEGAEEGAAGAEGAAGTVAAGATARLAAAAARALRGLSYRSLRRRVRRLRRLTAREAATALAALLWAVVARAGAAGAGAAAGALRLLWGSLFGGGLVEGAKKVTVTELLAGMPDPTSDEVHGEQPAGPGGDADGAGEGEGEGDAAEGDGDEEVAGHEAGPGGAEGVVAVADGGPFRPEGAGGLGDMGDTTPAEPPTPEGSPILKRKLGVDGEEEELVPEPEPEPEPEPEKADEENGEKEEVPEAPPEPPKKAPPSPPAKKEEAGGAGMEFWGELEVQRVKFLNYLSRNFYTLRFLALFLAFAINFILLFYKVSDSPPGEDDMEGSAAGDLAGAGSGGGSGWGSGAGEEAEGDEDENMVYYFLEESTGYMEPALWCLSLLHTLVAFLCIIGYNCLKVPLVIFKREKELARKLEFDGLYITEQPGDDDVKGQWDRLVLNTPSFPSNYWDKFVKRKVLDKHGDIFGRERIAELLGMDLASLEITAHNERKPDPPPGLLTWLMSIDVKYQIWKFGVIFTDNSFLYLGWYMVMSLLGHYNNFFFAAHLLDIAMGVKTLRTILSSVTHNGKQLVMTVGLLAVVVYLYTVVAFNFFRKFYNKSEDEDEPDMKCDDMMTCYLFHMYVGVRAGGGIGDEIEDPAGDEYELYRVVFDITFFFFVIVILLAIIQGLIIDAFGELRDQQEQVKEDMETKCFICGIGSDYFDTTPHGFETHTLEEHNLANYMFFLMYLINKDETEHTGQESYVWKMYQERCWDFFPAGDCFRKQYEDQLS

In the case of “EYFP-RyR1 (full-length rabbit type 1 ryanodine receptor), expressed in RyR1/RyR3 double-null (R1R3) myotubes, P11716 1-5037 (natural protein)”, the FRET efficiency is 8.6%.
